Results on four molecules are retold here after patent US20200024330A1.

Experiment in all cases: cell-based or functional assay
Assay [1] concerns the target HIV-1 Env of isolate MGRM-A-003 (HIV-1).
Assay [2] deals with HIV-1 Env of isolate MGRM-A-013 (HIV-1).
For assay [3], the target named is HIV-1 Env of isolate MGRM-A-012 (HIV-1).
Assay [4] has as its target HIV-1 Env of isolate MGRM-A-006 (HIV-1).
Assay [5] concerns the target HIV-1 Env of isolate 92WR021 (HIV-1).
For assay [6], the target named is HIV-1 Env of isolate 92RW008 (HIV-1).
Assay [7] deals with HIV-1 Env of isolate 94KE105 (HIV-1).
For assay [8], the target named is HIV-1 Env of isolate 92UG031 (HIV-1).
The target in assay [9] is HIV-1 Env of isolate MGRM-A-005 (HIV-1).
Assay [10] addresses HIV-1 Env of isolate 93WR029 (HIV-1).
Assay [11] has as its target HIV-1 Env of isolate 92WR009 (HIV-1).
The target of assay [12] is HIV-1 Env of isolate 92WR024 (HIV-1).
Assay [13] addresses HIV-1 Env of isolate MGRM-A-007 (HIV-1).
Assay [14] deals with HIV-1 Env of isolate 92WR026 (HIV-1).
Assay [15] addresses HIV-1 Env of isolate MGRM-A-009 (HIV-1).
Assay [16] concerns the target HIV-1 Env of isolate CMU02 (HIV-1).
The target of assay [17] is HIV-1 Env of isolate MGRM-A-010 (HIV-1).
Assay [18] deals with HIV-1 Env of isolate 94UG103 (HIV-1).
Assay [19] concerns the target HIV-1 Env of isolate MGRM-A-004 (HIV-1).
Assay [20] deals with HIV-1 Env of isolate MGRM-AE-003 (HIV-1).
Assay [21] has as its target HIV-1 Env of isolate MGRM-AE-002 (HIV-1).
The target in assay [22] is HIV-1 Env of isolate MGRM-A-002 (HIV-1).
In assay [23] the target is HIV-1 Env of isolate MGRM-A-014 (HIV-1).
Assay [24] concerns the target HIV-1 Env of isolate 92UG037 (HIV-1).
The target of assay [25] is HIV-1 Env of isolate MGRM-A-011 (HIV-1).
Assay [26] deals with HIV-1 APV17 envelope glycoprotein (Env) (HIV-1).
The target in assay [27] is HIV-1 MGRM-A-010 envelope glycoprotein (Env) (HIV-1).
Assay [28] concerns the target HIV-1 93UG077 envelope glycoprotein (Env) (HIV-1).
For assay [29], the target named is HIV-1 93IN905 envelope glycoprotein (Env) (HIV-1).
Assay [30] deals with HIV-1 JR-CSF Env G324A (HIV-1 isolate JR-CSF) (UniProt P20871).
Assay [31] has as its target HIV-1 JRFL envelope glycoprotein (Env) (HIV-1).
Assay [32] has as its target HIV-1 94UG103 envelope glycoprotein (Env) (HIV-1).
The target in assay [33] is HIV-1 MGRM-C-027 envelope glycoprotein (Env) (HIV-1).
The target in assay [34] is HIV-1 MGRM-C-026 envelope glycoprotein (Env) (HIV-1).
Assay [35] concerns the target HIV-1 JRCSF envelope glycoprotein (Env) (HIV-1) (UniProt P20871).
Assay [36] addresses HIV-1 NL43 envelope glycoprotein (Env) (HIV-1).
Assay [37] deals with Env of the clade AE HIV-1 pseudoviruses of the cross-clade 162-pseudovirus panel (n = 10).

B1: PGT-127 (antibody, V domains shown)
VH: QPQLQESGPGLVEASETLSLTCTVSGDSTGRCNYFWGWVRQPPGKGLEWIGSLSHCRSYYNTDWTYHNPSLKSRLTISLDTPKNQVFLRLTSVTAADTATYYCARFGGEVLVYRDWPKPAWVDLWGRGTLVVTVS
VL: QSALTQPPSASGSPGQSITISCTGTSNNFVSWYQQYPGKAPKLVIYEVNKRPSGVPDRFSGSKSGSTASLTVSGLQADDEGVYYCSSLVGNWDVIFGGGTKLTVL
For the molecule B1, the IC50 (µg/mL), pseudovirus neutralization is over 50 µg/mL in assay [1]; 0.029 µg/mL in assay [2]; 0.105 µg/mL in assay [3]; over 50 µg/mL in assay [4]; 0.011 µg/mL in assay [5]; 0.012 µg/mL in assay [6]. Also, the IC50 (µg/mL), pseudovirus neutralization was 0.023 µg/mL in assay [7]; over 50 µg/mL in assay [8]; over 50 µg/mL in assay [9]; over 50 µg/mL in [10]; over 50 µg/mL in assay [11]; over 50 µg/mL in assay [12]. For the same molecule, the IC50 (µg/mL), pseudovirus neutralization in [13] was over 50 µg/mL; in [14] it was 0.024 µg/mL; in assay [15], 0.013 µg/mL; in [16], over 50 µg/mL; in [17] it was 0.017 µg/mL; in assay [18] it was 0.017 µg/mL. The IC50 (µg/mL), pseudovirus neutralization in assay [19] is over 50 µg/mL; in assay [20] it was over 50 µg/mL; in assay [21] it was over 50 µg/mL; in [22] it was 9.42 µg/mL; in [23] it was 0.04 µg/mL; in [24] it was 0.014 µg/mL. The IC50 (µg/mL), pseudovirus neutralization in [25] is over 50 µg/mL.

B2: PGT-130 (antibody, V domains shown)
VH: QVQLQESGPGLVKPAETLSLTCSVSGESINTGHYYWGWVRQVPGKGLEWIGHIHYTTAVLHNPSLKSRLTIKIYTLRNQITLRLSNVTAADTAVYHCVRSGGDILYYYEWQKPHWFSPWGPGIHVTVSS
VL: QSALTQPPSASGSLGQSVTISCNGTSSDIGGWNFVSWYQQFPGRAPRLIIFEVNKRPSGVPGRFSGSKSGNSASLTVSGLQSDDEGQYFCSSLFGRWDVVFGGGTKLTVL
On to B2, for which the IC50 neutralization in assay [26] is over 10 µg/mL; in assay [27], 0.0054 µg/mL; in [28] it was over 10 µg/mL; in [29], 0.0182 µg/mL; in [31], 0.0346 µg/mL; in assay [32], 0.635 µg/mL. The IC50 neutralization in assay [33] was 0.0052 µg/mL; in assay [34], 0.0173 µg/mL; in [35] it was 0.0089 µg/mL; in [36], over 10 µg/mL. The molecule further came in with a Fold IC50 increase relative to wild-type in assay [30] of over 50 fold. The molecule further showed a Median IC50 against viruses neutralized with an IC50 <50 µg/ml in assay [37] of 0.17 µg/mL.

B3: PGT-125 (antibody, V domains shown)
VH: QSQLQESGPRLVEASETLSLTCNVSGESTGACTYFWGWVRQAPGKGLEWIGSLSHCQSFWGSGWTFHNPSLKSRLTISLDTPKNQVFLKLTSLTAADTATYYCARFDGEVLVYNHWPKPAWVDLWGRGIPVTVSS
VL: QSALTQPPSASGSPGQSITISCNGTATNFVSWYQQFPDKAPKLIIFGVDKRPPGVPDRFSGSRSGTTASLTVSRLQTDDEAVYYCGSLVGNWDVIFGGGTTLTVL
On to B3, for which the IC50 (µg/mL), pseudovirus neutralization in [1] was over 50 µg/mL; in [2], 0.014 µg/mL; in [3] it was 0.177 µg/mL; in assay [4], over 50 µg/mL; in assay [5] it was 0.005 µg/mL; in assay [6] it was 0.004 µg/mL. Besides, the IC50 (µg/mL), pseudovirus neutralization is 0.004 µg/mL in [7]; over 50 µg/mL in assay [8]; over 50 µg/mL in assay [9]; over 50 µg/mL in assay [10]; 0.144 µg/mL in [11]; 35.5 µg/mL in [12]. Also, the IC50 (µg/mL), pseudovirus neutralization is over 50 µg/mL in assay [13]; 0.007 µg/mL in assay [14]; 0.009 µg/mL in assay [15]; over 50 µg/mL in [16]; 0.004 µg/mL in [17]; 0.008 µg/mL in assay [18]. The IC50 (µg/mL), pseudovirus neutralization in assay [19] is over 50 µg/mL; in [20] it was 0.092 µg/mL; in assay [21], over 50 µg/mL; in [22], 0.013 µg/mL; in assay [23], 13.9 µg/mL; in [24] it was 0.005 µg/mL. Further, the IC50 (µg/mL), pseudovirus neutralization in assay [25] was over 50 µg/mL. Also, the IC50 neutralization came to 7.31 µg/mL in [26]; 0.0055 µg/mL in assay [27]; 0.0262 µg/mL in [28]; 0.0137 µg/mL in assay [29]; 0.0156 µg/mL in [31]; 0.0124 µg/mL in assay [32]. Also, the IC50 neutralization in assay [33] is over 10 µg/mL; in assay [34] it was 0.0106 µg/mL; in assay [35] it was 0.006 µg/mL; in [36] it was over 10 µg/mL. Further, in assay [30], the Fold IC50 increase relative to wild-type is 1.7 fold. For the same molecule, the Median IC50 against viruses neutralized with an IC50 <50 µg/ml in assay [37] stood at 0.03 µg/mL.

B4: PGT-131 (antibody, V domains shown)
VH: QVQLQESGPGLVKPSETLSLTCTVSGDSINTGHHYWGWVRQVPGKGPEWIAHIHYNTAVLHNPALKSRVTISIFTLKNLITLSLSNVTAADTAVYFCVRSGGDILYYIEWQKPHWFYPWGPGILVTVSS
VL: QSALTQPPSASGSLGQSLTISCSGTGSDIGSWNFVSWYQQFPGRAPNLIIFEVNRRRSGVPDRFSGSKSGNTASLTVSGLRSEDEAEYFCSSLSGRWDIVFGGGTKVTVL
Molecule B4 had a Median IC50 against viruses neutralized with an IC50 <50 µg/ml in [37] of 0.08 µg/mL.
